The values below come from PMC12345223.

The series concerns the target T1, ChCpc1;ChAtf1 (Cochliobolus heterostrophus C4 (Tox1+, …, UniProt M2T2C6;M2TIN4 1-465;1-567, |)).
T1 sequence 1: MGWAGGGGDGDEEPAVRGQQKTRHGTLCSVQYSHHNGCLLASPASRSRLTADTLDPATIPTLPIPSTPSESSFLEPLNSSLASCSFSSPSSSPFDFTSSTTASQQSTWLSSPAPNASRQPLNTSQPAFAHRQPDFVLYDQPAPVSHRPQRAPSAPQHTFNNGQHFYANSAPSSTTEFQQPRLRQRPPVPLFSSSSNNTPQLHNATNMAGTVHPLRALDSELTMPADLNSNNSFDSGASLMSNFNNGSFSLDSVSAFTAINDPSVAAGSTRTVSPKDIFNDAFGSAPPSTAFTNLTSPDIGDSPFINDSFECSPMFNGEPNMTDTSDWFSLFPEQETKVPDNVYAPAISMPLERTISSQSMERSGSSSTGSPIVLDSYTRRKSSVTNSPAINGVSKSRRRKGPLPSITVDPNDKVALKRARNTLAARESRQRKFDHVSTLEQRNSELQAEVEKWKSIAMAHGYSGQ
T1 sequence 2: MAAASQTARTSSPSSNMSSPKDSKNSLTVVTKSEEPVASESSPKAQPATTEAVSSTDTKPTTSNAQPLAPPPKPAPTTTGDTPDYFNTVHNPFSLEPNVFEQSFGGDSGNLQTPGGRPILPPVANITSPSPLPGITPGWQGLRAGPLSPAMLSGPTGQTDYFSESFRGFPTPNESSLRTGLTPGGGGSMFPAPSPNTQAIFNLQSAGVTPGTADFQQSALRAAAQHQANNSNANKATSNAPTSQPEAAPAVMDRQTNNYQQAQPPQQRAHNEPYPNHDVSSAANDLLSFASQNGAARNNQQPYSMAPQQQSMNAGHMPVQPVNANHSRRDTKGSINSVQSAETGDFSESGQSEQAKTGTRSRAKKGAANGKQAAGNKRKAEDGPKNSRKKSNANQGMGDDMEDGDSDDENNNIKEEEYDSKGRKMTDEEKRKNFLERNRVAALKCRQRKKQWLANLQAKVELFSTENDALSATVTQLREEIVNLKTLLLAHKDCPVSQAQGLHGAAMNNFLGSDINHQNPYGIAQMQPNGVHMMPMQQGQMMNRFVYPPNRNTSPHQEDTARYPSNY
As to the kind of experiment: EMSA; enhanced versus ChCpc1 alone; Light Shift Chemiluminescent EMSA Kit (Beyotime), 20 min at 25°C; 6.5% polyacrylamide gel, 0.5x TBE; binding buffer, salt and pH not stated. The following applies: protein: recombinant;recombinant; tags: His (pET-32a);His (pET32a); copies: 1;1; label: biotin (on forward strand); blunt. On the technique in general: Mobility shift assays separate free from complexed probe on a gel.

B1: ChATG8 promoter probe (dsDNA)
DNA 1: GGAGAGCGTGAAGGAGAGAGACGGGATGAGTCAAAGTACCCAGGTAGCCAGGTCATGGGA
DNA 2: TCCCATGACCTGGCTACCTGGGTACTTTGACTCATCCCGTCTCTCTCCTTCACGCTCTCC
As to B1, the binding result is reported as “binds”.

B2: ChARG4 promoter probe (dsDNA)
DNA 1: CATTGGCGTTTGGGACTGAATTACAATGAGTAATGAAATAACTCACACCACAAAGCAGTA
DNA 2: TACTGCTTTGTGGTGTGAGTTATTTCATTACTCATTGTAATTCAGTCCCAAACGCCAATG
Consider B2, for which the binding result is given as “binds”.
